Patent US11260115B1, “Peptides and combination of peptides for use in immunotherapy against CLL and other cancers” (immatics biotechnologies GmbH, priority 2015, dated 2022)

Target: HLA-A*02:01 (Homo sapiens, UniProt P04439, D140Y/D185E/D98H/E176V/E277Q/G131W/G231S/I119V/I121R/I166T/I218V/L300P/L318F/N151K/N90K/P208A/P217A/Q86G/Q94H/R138H/R169H/T345S)
Assay: MHC binding assay (UV-ligand exchange, β2m ELISA, peptide exchange yield)
Details: binding to HLA-A*02:01
Source text: Candidate peptides for T cell based therapies according to the present invention were further tested for their MHC binding capacity (affinity). The individual peptide-MHC complexes were produced by UV-ligand exchange, where a UV-sensitive peptide is cleaved upon UV-irradiation, and exchanged with the peptide of interest as analyzed. Only peptide candidates that can effectively bind and stabilize the peptide-receptive MHC molecules prevent dissociation of the MHC complexes. To determine the yield of the exchange reaction, an ELISA was performed based on the detection of the light chain (β2m) of stabilized MHC complexes. The assay was performed as generally described in Rodenko et al. (Rodenko et al., 2006).
96 well MAXISorp plates (NUNC) were coated over night with 2 ug/ml streptavidin in PBS at room temperature, washed 4× and blocked for 1 h at 37° C. in 2% BSA containing blocking buffer. Refolded HLA-A*02:01/MLA-001 monomers served as standards, covering the range of 15-500 ng/ml. Peptide-MHC monomers of the UV-exchange reaction were diluted 100 fold in blocking buffer. Samples were incubated for 1 h at 37° C., washed four times, incubated with 2 ug/ml HRP conjugated anti-β2m for 1 h at 37° C., washed again and detected with TMB solution that is stopped with […]. Absorption was measured at 450 nm. Candidate peptides that show a high exchange yield (preferably higher than 50%, most preferred higher than 75%) are generally preferred for a generation and production of antibodies or fragments thereof, and/or T cell receptors or fragments thereof, as they show sufficient avidity to the MHC molecules and prevent dissociation of the MHC complexes.
Table 11: MHC class I binding scores. Binding of HLA-class I restricted peptides to HLA-A*02:01 was ranged by peptide exchange yield: ≥10%=+; ≥20%=++; ≥50=+++; ≥75%=++++

Peptide Exchange (MHC class I binding score, peptide exchange yield)	Substance
“+++” (>50 = +++)	1 (AIPPSFASIFL; listed as Homo sapiens) [compound 1]
“++” (>20% = ++)	3 (VIAELPPKV; listed as Homo sapiens) [compound 3]
“+++” (>50 = +++)	4 (VIAELPPKVSV; listed as Homo sapiens) [compound 4]
“+++” (>50 = +++)	5 (ALIFKIASA; listed as Homo sapiens) [compound 5]
“+++” (>50 = +++)	6 (ALDTLEDDMTI; listed as Homo sapiens) [compound 6]
“+++” (>50 = +++)	7 (ALLERTGYTL; listed as Homo sapiens) [compound 7]
“+++” (>50 = +++)	8 (ALAASALPALV; listed as Homo sapiens) [compound 8]
“+++” (>50 = +++)	9 (ALCDTLITV; listed as Homo sapiens) [compound 9]
“+++” (>50 = +++)	10 (FVYGESVEL; listed as Homo sapiens) [compound 10]
“+++” (>50 = +++)	11 (ALFTFSPLTV; listed as Homo sapiens) [compound 11]
“+++” (>50 = +++)	12 (ALGEDEITL; listed as Homo sapiens) [compound 12]
“+++” (>50 = +++)	13 (VVDGMPPGV; listed as Homo sapiens) [compound 13]
“+++” (>50 = +++)	14 (ALLRLLPGL; listed as Homo sapiens) [compound 14]
“+++” (>50 = +++)	15 (ALPEVSVEA; listed as Homo sapiens) [compound 15]
“++++” (>75% = ++++)	16 (ALPGGAAVAAV; listed as Homo sapiens) [compound 16]
“+++” (>50 = +++)	18 (LLGEFSIKM; listed as Homo sapiens) [compound 18]
“+++” (>50 = +++)	19 (QVMEKLAAV; listed as Homo sapiens) [compound 19]
“+++” (>50 = +++)	20 (ALVDPGPDFVV; listed as Homo sapiens) [compound 20]
“+++” (>50 = +++)	21 (ALWAGLLTL; listed as Homo sapiens) [compound 21]
“+++” (>50 = +++)	22 (ALWDPVIEL; listed as Homo sapiens) [compound 22]
“++++” (>75% = ++++)	23 (ALYLTEVFL; listed as Homo sapiens) [compound 23]

Peptide Exchange (MHC class I binding score, peptide exchange yield)	Substance
“+++” (>50 = +++)	24 (AMAGDVVYA; listed as Homo sapiens) [compound 24]
“++” (>20% = ++)	25 (ATYSGLESQSV; listed as Homo sapiens) [compound 25]
“+++” (>50 = +++)	27 (AVLGLVWLL; listed as Homo sapiens) [compound 27]
“++” (>20% = ++)	28 (AVLHLLLSV; listed as Homo sapiens) [compound 28]
“+++” (>50 = +++)	29 (AVLQAVTAV; listed as Homo sapiens) [compound 29]
“+++” (>50 = +++)	30 (ELLEGSEIYL; listed as Homo sapiens) [compound 30]
“+++” (>50 = +++)	31 (ELMHGVAGV; listed as Homo sapiens) [compound 31]
“+++” (>50 = +++)	34 (YLPYIFPNI; listed as Homo sapiens) [compound 34]
“+++” (>50 = +++)	35 (FILPSSLYL; listed as Homo sapiens) [compound 35]
“++++” (>75% = ++++)	36 (FILTHVDQL; listed as Homo sapiens) [compound 36]
“++++” (>75% = ++++)	37 (FIMEGGAMVL; listed as Homo sapiens) [compound 37]
“+++” (>50 = +++)	38 (FIMEGGAMV; listed as Homo sapiens) [compound 38]
“+++” (>50 = +++)	39 (FLDALLTDV; listed as Homo sapiens) [compound 39]
“++” (>20% = ++)	40 (FLDEDDMSL; listed as Homo sapiens) [compound 40]
“+++” (>50 = +++)	41 (FLDPSLDPLL; listed as Homo sapiens) [compound 41]
“+++” (>50 = +++)	42 (FLEEGGVVTV; listed as Homo sapiens) [compound 42]
“++++” (>75% = ++++)	43 (FLLGPEALSFA; listed as Homo sapiens) [compound 43]
“+++” (>50 = +++)	44 (FLLSINDFL; listed as Homo sapiens) [compound 44]
“+++” (>50 = +++)	45 (FLPELPADLEA; listed as Homo sapiens) [compound 45]
“+++” (>50 = +++)	46 (YIIDSAQAV; listed as Homo sapiens) [compound 46]
“++” (>20% = ++)	47 (FLSDQPEPYL; listed as Homo sapiens) [compound 47]

Peptide Exchange (MHC class I binding score, peptide exchange yield)	Substance
“+++” (>50 = +++)	48 (FLSPQQPPLL; listed as Homo sapiens) [compound 48]
“++++” (>75% = ++++)	49 (FLTDLFAQL; listed as Homo sapiens) [compound 49]
“+++” (>50 = +++)	50 (FLFEPVVKAFL; listed as Homo sapiens) [compound 50]
“++++” (>75% = ++++)	51 (FLVEAPHDWDL; listed as Homo sapiens) [compound 51]
“++++” (>75% = ++++)	52 (FLVETGFLHV; listed as Homo sapiens) [compound 52]
“+++” (>50 = +++)	53 (FLWQHVELVL; listed as Homo sapiens) [compound 53]
“+++” (>50 = +++)	55 (FMEPTLLML; listed as Homo sapiens) [compound 55]
“+++” (>50 = +++)	56 (FVFEAPYTL; listed as Homo sapiens) [compound 56]
“+++” (>50 = +++)	58 (YIQQGIFSV; listed as Homo sapiens) [compound 58]
“+++” (>50 = +++)	59 (FVFGDENGTVSL; listed as Homo sapiens) [compound 59]
“+++” (>50 = +++)	60 (FVLDHEDGLNL; listed as Homo sapiens) [compound 60]
“+++” (>50 = +++)	61 (FVYFIVREV; listed as Homo sapiens) [compound 61]
“+++” (>50 = +++)	62 (GIIDGSPRL; listed as Homo sapiens) [compound 62]
“+++” (>50 = +++)	63 (SLAHVAGCEL; listed as Homo sapiens) [compound 63]
“+++” (>50 = +++)	64 (KLLESVASA; listed as Homo sapiens) [compound 64]
“++” (>20% = ++)	65 (GLDDMKANL; listed as Homo sapiens) [compound 65]
“+++” (>50 = +++)	66 (SLAGGLDDMKA; listed as Homo sapiens) [compound 66]
“++” (>20% = ++)	67 (GLDDVTVEV; listed as Homo sapiens) [compound 67]
“+” (>10% = +)	68 (GLDQQFAGLDL; listed as Homo sapiens) [compound 68]
